Data taken from patent US20070032417A1, “Peptides and therapeutic uses thereof” (priority 2002, published 2007).
Bridges are numbered along the chain shown (N, C = ends).

Target: GST tagged Bcl w delta C29 protein (UniProt Q92843)
Experiment: AlphaScreen competition, GST detection; competitor biotinylated Bim BH3-26 peptide

Ac-IWIAQELRRIGDEFNA-NH2 (linker 6-13 via ‑NHCH2C(═O)(CH2)2NH2‑)
IC50: 0.3 nM
